Assay results taken from patent publication US20110183861A1 (ABLYNN N V, published 2011).
Changes are numbered by the printed parent chain. Names and notes keep the numbering of the source. Each block holds one binder with its values, some of them ahead of it.

Columns and labels:
A1 domain of vWF [1] = biological target: T1, A1 domain of vWF (UniProt P04275 1261-1468, limits assumed); assay: BIAcore initial binding rate, vWF A1 domain on sensor-chip, stored sample
T1 construct: domain: A1 domain; also called vWF A1 domain
Experimental: (§1) The kinetic constants, kₒₙ and koff, were deduced from the obtained sensorgrams and used to calculate the equilibrium dissociation constant, KD. […] For these experiments, the samples were diluted to a 2 nM concentration. The initial binding rate was determined from the association phase of the sensorgram by linear fitting of the data points obtained between 5 and 25 seconds after the injection start and the reported value is the average of 5 independent measurements.

A1 domain of vWF [2] = biological target: T1, A1 domain of vWF; assay: SPR (BIAcore), vWF A1 domain on sensor-chip
Experimental: as §1

A1 domain of vWF [3] = biological target: T1, A1 domain of vWF; assay: SPR (BIAcore), immobilized vWF A1 domain; M83A mutant
Experimental: as §1

A1 domain of vWF [4] = biological target: T1, A1 domain of vWF; assay: SPR (BIAcore), vWF A1 domain on sensor-chip; remark: listed apart in the source
Experimental: as §1

A1 domain of vWF [5] = biological target: T1, A1 domain of vWF; assay: SPR (BIAcore), immobilized vWF A1 domain; M34A mutant
Experimental: as §1

A1 domain of vWF [6] = biological target: T1, A1 domain of vWF; assay: SPR (Biacore), A1 domain of VWF
A1 domain of vWF [7] = biological target: T1, A1 domain of vWF; assay: SPR (BIAcore), immobilized vWF A1 domain; M78A mutant
Experimental: as §1

human RANKL [8] = biological target: T2, human RANKL (human, UniProt O14788 140-317, limits assumed); assay: AlphaScreen competition against the human RANKL / human RANK-Fc interaction
T2 sequence (looked up): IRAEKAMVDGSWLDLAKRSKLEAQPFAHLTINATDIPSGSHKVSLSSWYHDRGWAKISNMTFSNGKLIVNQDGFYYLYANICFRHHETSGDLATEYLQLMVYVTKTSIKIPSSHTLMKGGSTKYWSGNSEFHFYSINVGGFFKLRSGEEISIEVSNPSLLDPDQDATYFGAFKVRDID
Experimental: (§2) Finally, streptavidin coated donor beads (20 ug/ml) were added. After 1 hour of incubation plates were read on the Envison Alphascreen reader (PerkinElmer). All experiments were performed in duplicate.

human RANKL [9] = biological target: T2, human RANKL; assay: AlphaScreen competition: Nanobody titrated against the interaction of human RANKL (1 nM) with biotinylated human RANK-Fc (3 nM); acceptor beads with anti-RANKL MAb BN-12, streptavidin donor beads
Experimental: as §2

A1 domain of vWF [10] = biological target: T1, A1 domain of vWF; assay: PLA potency assay (Biacore) on RPC fraction, second experiment
Experimental: (§3) To determine the potency (i.e. looking at affinity measurements) of the −18Da product related variant, post-peak 1 was collected during RP-HPLC separation and directly measured in the PLA potency assay. Similar to what was done for pre-peak 1, the elution fraction representing post-peak 1 was first dried using a speedvac (miVac Duo Concentrator, Genevac) and then re-solubilized in PBS. […] Three independent but slightly different experiments were performed. In a first experiment the concentration after reconstitution was determined spectrophotometrically and no Tween was added to the PBS. In a second experiment, 0.02% Tween was present in the PBS at the time of reconstitution of the dried material (to prevent loss of protein from the relatively dilute samples) and the concentration was deduced from the peak area in a re-analysis by RP-HPLC. The RPC re-analysis also confirmed the identity of the isolated material. In a third experiment, we additionally diluted the purified main peak material to about the same concentration as the post-peak variant so to eliminate as much as possible any dissimilarities between the main and the post-peak samples. […]

A1 domain of vWF [11] = biological target: T1, A1 domain of vWF; assay: PLA potency assay (Biacore) on RPC fraction, first experiment
Experimental: as §3

A1 domain of vWF [12] = biological target: T1, A1 domain of vWF; assay: Biacore potency assay

B1: SEQ ID NO: 2 D62A (VHH)
VHH: EVQLVESGGGLVQPGGSLRLSCAASGRTFSYNPMGWFRQAPGKGRELVAAISRTGGSTYYPASVEGRFTISRDNAKRMVYLQMNSLRAEDTAVYYCAAAGVRAEDGRVRTLPSEYTFWGQGTQVTVSS
% activity after 4 wks at 37° C. (initial binding rate against time zero) (A1 domain of vWF [1]): 88.4%
% activity after 8 wks at 37° C. (initial binding rate against time zero) (A1 domain of vWF [1]): 87.4%
Kd (A1 domain of vWF [2]): 1 nM

B2: SEQ ID NO: 2 D105N (VHH)
VHH: B1 VHH with A62D, D105N
% activity after 4 wks at 37° C. (initial binding rate against time zero) (A1 domain of vWF [1]): 29.5%
% activity after 8 wks at 37° C. (initial binding rate against time zero) (A1 domain of vWF [1]): 32.7%
Kd (A1 domain of vWF [2]): 0.8 nM

B3: SEQ ID NO: 2 D62E (VHH)
VHH: B1 VHH with A62E
% activity after 4 wks at 37° C. (initial binding rate against time zero) (A1 domain of vWF [1]): 89.6%
% activity after 8 wks at 37° C. (initial binding rate against time zero) (A1 domain of vWF [1]): 80.2%
Kd (A1 domain of vWF [2]): 1.3 nM

B7: SEQ ID NO: 2 D105E (VHH)
VHH: B1 VHH with A62D, D105E
% activity after 8 wks at 37° C. (initial binding rate against time zero) (A1 domain of vWF [1]): 98.8%
Kd (A1 domain of vWF [2]): 4.4 nM

B8: SEQ ID NO: 2 D105A (VHH)
VHH: B1 VHH with A62D, D105A
% activity after 8 wks at 37° C. (initial binding rate against time zero) (A1 domain of vWF [1]): 98.7%
fold drop in affinity against wild type SEQ ID NO: 2 (A1 domain of vWF [4]): 10 fold
Kd (A1 domain of vWF [2]): 9.3 nM

B14: RANKL-1_D62E (VHH)
VHH: EVQLVESGGGLVQPGGSLRLSCAASGFTFSSYPMGWFRQAPGKGREFVSSITGSGGSTYYAESVKGRFTISRDNAKNTLYLQMNSLRPEDTAVYYCAAYIRPDTYLSRDYRKYDYWGQGTLVTVSS
notes: Expressed from pAX054 in the periplasm of E. coli; not shown: C-terminal c-myc tag and (His)6 tag coded by vector pAX054
IC50 (read off the curve) (human RANKL [8]): ~0.1 nM

B15: RANKL-1 (VHH)
VHH: B14 VHH with E62D
notes: as for B14
IC50 (read off the curve) (human RANKL [8]): ~0.1 nM
IC50 (human RANKL [9]): 0.114 nM

B16: SEQ ID NO: 1, ALX-0081 (VHH)
chain: EVQLVESGGGLVQPGGSLRLSCAASGRTFSYNPMGWFRQAPGKGRELVAAISRTGGSTYYPDSVEGRFTISRDNAKRMVYLQMNSLRAEDTAVYYCAAAGVRAEDGRVRTLPSEYTFWGQGTQVTVSSAAAEVQLVESGGGLVQPGGSLRLSCAASGRTFSYNPMGWFRQAPGKGRELVAAISRTGGSTYYPDSVEGRFTISRDNAKRMVYLQMNSLRAEDTAVYYCAAAGVRAEDGRVRTLPSEYTFWGQGTQVTVSS
notes: Produced in E. coli; also called BATCH 1; RPC main peak
potency relative to reference SEQ ID NO:1 (A1 domain of vWF [10]): 50%
potency relative to reference SEQ ID NO:1 (A1 domain of vWF [11]): 91.9%

B17: SEQ ID NO: 1 RPC post-peak 1 (single norleucine mis-incorporation, -18 Da) (VHH)
chain: B16 chain
modifications: norleucine in place of one methionine (site not determined), -18 Da
notes: Collected from RP-HPLC and reconstituted before the potency assay; also called -18Da product related variant
potency relative to reference SEQ ID NO:1 (A1 domain of vWF [10]): 81%
potency relative to reference SEQ ID NO:1 (A1 domain of vWF [11]): 51.6%

B18: SEQ ID NO: 1 E1Q, fraction E1Q-a (cyclized pyroglutamate form) (VHH)
chain: B16 chain with E1Q
modifications: N-terminal pyroglutamate (cyclized Q1)
notes: Fraction of the E1Q mutant from a monoS column; mass 27857 Da
potency relative to BATCH 1 (average) (A1 domain of vWF [12]): 105%

The remaining lines, values ahead:

% activity after 4 wks at 37° C. (initial binding rate against time zero) (A1 domain of vWF [1]): 101%
% activity after 8 wks at 37° C. (initial binding rate against time zero) (A1 domain of vWF [1]): 96%
Kd (A1 domain of vWF [2]): 7.2 nM
B4: SEQ ID NO: 2 D105T (VHH)
VHH: B1 VHH with A62D, D105T

% activity after 4 wks at 37° C. (initial binding rate against time zero) (A1 domain of vWF [1]): 95.5%
% activity after 8 wks at 37° C. (initial binding rate against time zero) (A1 domain of vWF [1]): 83.8%
Kd (A1 domain of vWF [2]): 1.2 nM
B5: SEQ ID NO: 2 S63G (VHH)
VHH: B1 VHH with A62D, S63G

Kd (A1 domain of vWF [3]): 1.29 nM
B6: SEQ ID NO: 2 M83A (VHH)
VHH: B1 VHH with A62D, M83A

Kd (A1 domain of vWF [5]): 1.96 nM
B9: SEQ ID NO: 2 M34A (VHH)
VHH: B1 VHH with M34A, A62D

Kd (A1 domain of vWF [6]): 0.986 nM
koff (A1 domain of vWF [6]): 0.0207 s⁻¹
kon (A1 domain of vWF [6]): 2.1e+07 M⁻¹ s⁻¹
B10: Stab. 12A2H1; SEQ ID NO: 2 with E1D, D62E, M78T, D105Q (VHH)
VHH: B1 VHH with E1D, A62E, M78T, D105Q
notes: also called 12A2H1 SV1; 12A2h1SV1

% activity after 4 wks at 37° C. (initial binding rate against time zero) (A1 domain of vWF [1]): 97.6%
% activity after 8 wks at 37° C. (initial binding rate against time zero) (A1 domain of vWF [1]): 90.8%
Kd (A1 domain of vWF [2]): 1.1 nM
B11: SEQ ID NO: 2 D105Q (VHH)
VHH: B1 VHH with A62D, D105Q

Kd (A1 domain of vWF [7]): 1.46 nM
B12: SEQ ID NO: 2 M78A (VHH)
VHH: B1 VHH with A62D, M78A

% activity after 4 wks at 37° C. (initial binding rate against time zero) (A1 domain of vWF [1]): 93.7%
% activity after 8 wks at 37° C. (initial binding rate against time zero) (A1 domain of vWF [1]): 94.2%
Kd (A1 domain of vWF [2]): 3.7 nM
B13: SEQ ID NO: 2 D105S (VHH)
VHH: B1 VHH with A62D, D105S
